Consider 13 molecules from patent publication US20220153790A1 (TECHNISCHE UNIVERSIT T M NCHEN, published 2022).

Positions count from the first letter of the chain named.

Assay [1] deals with T1, fully glycosylated, monobiotinylated extracellular domain of human CD98hc produced in HEK 293E cells (human, UniProt P08195 111-529, N-linked glycosylation at Asn264, 280, 323 and 405 (UniProt P08195-2); single biotin on the N-terminal BAP).
T1 construct: also called hCD98hcEDg; CD98hcEDg; not shown: N-terminal His6 tag and biotin acceptor peptide (BAP) from pDSG-BM-His6-BAP-hCD98hcEDg
T1 sequence: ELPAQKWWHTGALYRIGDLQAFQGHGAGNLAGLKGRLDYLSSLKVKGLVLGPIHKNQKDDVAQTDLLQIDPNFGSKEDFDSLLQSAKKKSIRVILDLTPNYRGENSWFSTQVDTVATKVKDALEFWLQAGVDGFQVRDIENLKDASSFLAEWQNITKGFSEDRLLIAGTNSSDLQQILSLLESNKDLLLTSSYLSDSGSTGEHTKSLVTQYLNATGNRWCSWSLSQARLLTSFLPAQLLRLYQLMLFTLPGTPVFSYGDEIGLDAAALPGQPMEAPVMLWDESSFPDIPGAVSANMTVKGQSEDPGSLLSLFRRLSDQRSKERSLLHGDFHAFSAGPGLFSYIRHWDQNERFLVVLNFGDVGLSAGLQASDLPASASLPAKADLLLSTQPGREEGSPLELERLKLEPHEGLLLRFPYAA
Assay: not given

For assay [2], the target named is T1, fully glycosylated, monobiotinylated …. Put plainly: SPR, biotinylated hCD98hcEDg captured on CAP chip. The procedure:
(§1) Real time surface plasmon resonance (SPR) spectroscopy was performed on a BIAcore 2000 system (BIAcore, Uppsala, Sweden) at 25° C. using HBS-T (20 mM Hepes/NaOH pH 7.5, 150 mM NaCl, 0.005% v/v Tween20) as running buffer. The purified biotinylated m/hCD98hcED (3 μg/ml protein solution in HBS-T produced in HEK cells or E. coli) was immobilized (ARU-225) via streptavidin on a CAP sensorchip of the Biotin CAPture kit (GE Healthcare). SPR single cycle kinetic experiments were performed using five consecutive injections of a 1:2 dilution series of the purified lipocalin variant at a flow rate of 25 μl/min, with 288 s contact time and 3500 s dissociation time after the fifth injection. For multi cycle kinetic experiments, eight samples from a consecutive 1:2 dilution series of the purified lipocalin variant were measured. Rate constants of association and dissociation were calculated from reference-corrected sensorgrams by fitting to a global 1:1 Langmuir binding model using BIAevaluation software (BIAcore). The equilibrium dissociation constants (KD value) were calculated as the quotient koff/kₒₙ. To test competitive binding of the lipocalin variants P3D11, P3A12 and P1E4 to glycosylated hCD98hcED, 100 nM of P3D11 was first injected and followed by a subsequent injection of either 100 nM P3A12 or 100 nM P1E4. HBS-T injections served as negative control.

For assay [3] the target is unchanged. As to the kind of experiment: SPR, complex dissociation half-life. The method, then:
as §1
Background: In SPR one partner is held on a chip, and binding of the other changes the refractive index at the surface.

Assay [4] concerns the target T2, unglycosylated, monobiotinylated extracellular domain of human CD98hc produced in E. coli (human, UniProt P08195 111-529, single biotin on the N-terminal biotin acceptor peptide (BAP)).
T2 construct: also called hCD98hcED; CD98hcED; not shown: N-terminal biotin acceptor peptide (BAP) from pASK-IBA5(+)-BAP-hCD98hcED
T2 sequence: T1 sequence
Put plainly: SPR, complex dissociation half-life. The procedure:
as §1

Assay [5] concerns the target T2, unglycosylated, monobiotinylated …. As to the kind of experiment: SPR (BIAcore 2000), biotinylated hCD98hcED captured on CAP chip, single cycle kinetics. The method, then: as §1
Assay [6] has the same target. Put plainly: SPR (BIAcore 2000), biotinylated hCD98hcED captured on CAP chip, multiple cycle kinetics. The method, then: as §1
The target in assay [7] is T1, fully glycosylated, monobiotinylated …. Put plainly: SPR, comparison of glycosylated and unglycosylated ectodomain. The procedure: as §1
Assay [8] has as its target T2, unglycosylated, monobiotinylated …. As to the kind of experiment: flow cytometry of E. coli displaying the lipocalin; hCD98hcED detected by PE fluorescence, display level by Dy634 fluorescence. The method, then: (§2) The bacterial lawn was scraped from the plate(s), resuspended in 50 ml LB/Amp medium, followed by inoculation to an initial OD₅₅₀ of 0.15 at 37° C. Gene expression was induced at OD₅₅₀=0.5 with 10 ng/ml anhydrotetracycline (aTc) for 2.5 h. Approximately 2×10⁸ cells were sedimented and resuspended in PBS with biotinylated hCD98hcED at different concentrations (cycles 1 and 2: 100 nM; cycles 3 and 4: 10 nM; cycles 5 and 6: 1 nM) for 1 h at 4° C. After one washing step with PBS, the bacteria were incubated with 25 μg/ml streptavidin/phycoerythrin (PE) conjugate (Biolegend, San Diego, Calif.) and 3 μM dye-labeled Fab A3C5-DY634 [61] in PBS for 30 min followed by a last washing step in PBS. Bacteria were sorted on a FACSAria Ilu instrument (BD Bioscience, Heidelberg, Germany) using a 488 nm LASER diode with a 585/42 band pass filter or a 633 nm HeNe LASER in combination with a 660/20 band pass filter for excitation/detection of PE and DY634 fluorescence, respectively. Sorted bacteria were plated on LB/Amp agar, incubated at 37° C. for 12 h and then subjected to a new sorting cycle. After BSD cycle 6, single clone analysis was performed by cytofluorimetric analysis of individual colonies. Data were processed using FlowJo v10 software (FlowJo, Ashland, Oreg.). […]

Assay [9] has the same target. Put plainly: SPR. The method, then: as §1
The target is the same in assay [10]. As to the kind of experiment: single clone flow cytometry of E. coli displaying the lipocalin, 1 nM biotinylated hCD98hcED, mean PE fluorescence. The method, then:
as §2
A general note: Flow cytometry measures light scatter and fluorescence of single cells or particles in a stream.

B1: lipocalin variant P3A12 (designed binder)
chain: QDSTSDLIPAPPLSKVPLQQNFQDNQFHGKWYVVGRAGNLGLREDKDPAKMFATIYELKEDKSYNVTYVWFDLKKCKYSIHTFVPGSQPGEFTLGKIKSGPGHTSWLVRVVSTNYNQHAMVFFKWVGQNRENFAITLYGRTKELTSELKENFIRFSKSLGLPENHIVFPVPIDQCIDG
notes: produced soluble in E. coli JM83, monomeric; also called Anticalin P3A12; not shown: C-terminal His6-tag (plasmid pNGAL118)
On to B1, for which, in [1], the Kd – broadly, the concentration at which binding is half-saturated – is at most 200 nM. In assay [2], the Kd is 1.9 nM; the koff (in general, a measure of how fast the partners let go of each other) turned out to be 0.0004 s⁻¹; the kon (as a rule, the rate constant with which the complex forms) was found to be 220000 M⁻¹ s⁻¹. In addition, the “T1/2” value in [3] came to 0.483 h. In assay [4], the “T½” value came to 1.13 h. In [5], the Kd worked out at 2.8 nM, the koff is 0.00017 s⁻¹ and the kon is 62000 M⁻¹ s⁻¹.

B2: lipocalin variant P1E4 (designed binder)
chain: QDSTSDLIPAPPLSKVPLQQNFQDNQFHGKWYVVGIAGNSMLREDKDPFKMTATIYELKEDKSYNVTRVRFDDKKCLYRILTFVPGSQPGEFTLGNIKSRPGWTSWLVRVVSTNYNQHAMVFFKRVHQNRETFWITLYGRTKELTSELKENFIRFSKSLGLPENHIVFPVPIDQCIDG
notes: produced soluble in E. coli JM83, monomeric; also called Anticalin P1E4; not shown: C-terminal His6-tag (plasmid pNGAL118)
In [1], B2 yielded a Kd of at most 200 nM. In assay [6], this molecule gave a dissociation constant Kd of 4.5 nM, a dissociation rate constant (koff) of 0.011 s⁻¹ and an on-rate (kon) of 2.5e+06 M⁻¹ s⁻¹. The “fold decrease of binding by N-glycosylation (hCD98hcEDg against hCD98hcED)” value in assay [7] was around 100 fold. Besides, in assay [2], the Kd turned out to be 162 nM, the dissociation rate constant (koff) is 0.09 s⁻¹ and the association rate constant (kon) turned out to be 560000 M⁻¹ s⁻¹. The “T1/2” value in assay [3] is below 0.0167 h. The “T½” value in [4] amounted to 0.0183 h.

B3: wtLcn2 displayed on the E. coli cell surface (other)
chain: QDSTSDLIPAPPLSKVPLQQNFQDNQFQGKWYVVGLAGNAILREDKDPQKMYATIYELKEDKSYNVTSVLFRKKKCDYWIRTFVPGCQPGEFTLGNIKSYPGLTSYLVRVVSTNYNQHAMVFFKKVSQNREYFKITLYGRTKELTSELKENFIRFSKSLGLPENHIVFPVPIDQCIDG
notes: Control in the single clone FACS analysis; also called wild type Lcn2; not shown: The display carrier: the A3C5 tag and the engineered beta-domain of the autotransporter EspP (pNGAL146)
Take B3: the binding result in assay [8] was “no binding (tested: 100 nM hCD98hcED)”.

B4: lipocalin variant D11vs (designed binder)
chain: QDSTSDLIPAPPLSKVPLQQNFQDNQFHGKWYVVGRAGNTGLREDKDPGKMFATIYELKEDKSYNVTYVWSGQKKCMYSIVTFVPGSQPGEFTLGNIKSAPGRTSWLVRVVSTNYNQHAMVFFKSVTQNREGFAITLYGRTKELTSELKENFIRFSKSLGLPENHIVFPVPIDQCIDG
notes: P3D11 variant with Phe71Ser and Gly81Val; also called Anticalin D11vs; not shown: C-terminal His6-tag (plasmid pNGAL118) as for the other soluble lipocalin variants
For B4, in assay [9], the “fold increase of affinity against P3D11” value is around 3 fold. In addition, in assay [2], the Kd is 0.05 nM, the koff turned out to be 2.2e-05 s⁻¹ and the association rate constant (kon) is 460000 M⁻¹ s⁻¹. The “T1/2” value in assay [3] was determined as 8.72 h. The “T½” value in assay [4] is 7.37 h. Besides, in assay [5], the Kd was 0.05 nM, the koff was determined as 2.6e-05 s⁻¹ and the kon was determined as 450000 M⁻¹ s⁻¹.

B5: SEQ ID NO 11 (designed binder)
chain: B4 chain with K74T
B5 displayed a Kd in assay [1] of at most 200 nM.

B6: SEQ ID NO 8 (designed binder)
chain: B4 chain with S71F, H118Y, V126E, N151Y
B6 registered a Kd in assay [1] of at most 200 nM.

B7: lipocalin variant P3D11 (designed binder)
chain: B4 chain with S71F, V81G
notes: produced soluble in E. coli JM83, monomeric; also called Anticalin P3D11; not shown: C-terminal His6-tag (plasmid pNGAL118)
Regarding B7, the equilibrium dissociation constant (Kd) in assay [1] was at most 200 nM. In [2], this molecule came in with a Kd of 0.17 nM, an off-rate (koff) of 5e-05 s⁻¹ and a kon of 300000 M⁻¹ s⁻¹. The “T1/2” value in assay [3] was found to be 3.83 h. Further, in assay [4], the “T½” value was 5.99 h. In assay [5], this molecule registered a Kd of 0.15 nM, a koff of 3.2e-05 s⁻¹ and an on-rate constant (kon) of 220000 M⁻¹ s⁻¹.

B8: SEQ ID NO 5 (designed binder)
chain: B4 chain with S71F, H118Y
The molecule B8 had a Kd in assay [1] of at most 200 nM.

B9: SEQ ID NO 10 (designed binder)
chain: B4 chain with T82S, F92Y, T93N
Take B9: the Kd in [1] is at most 200 nM.

B10: P3D11 variant D11.1 displayed on the E. coli cell surface (designed binder)
chain: B4 chain with R103Q, N151I
notes: One of the variants from error-prone PCR and bacterial surface display; not shown: The display carrier: the A3C5 tag and the engineered beta-domain of the autotransporter EspP (pNGAL146)
For the molecule B10, the binding result in assay [10] is reported as “binds”.

B11: SEQ ID NO 7 (designed binder)
chain: B4 chain with S71F, Y78N, H118Y
Consider B11, for which, in assay [1], the Kd is at most 200 nM.

B12: SEQ ID NO 9 (designed binder)
chain: B4 chain with S71F, G132E
B12 had an equilibrium dissociation constant (Kd) in assay [1] of at most 200 nM.

B13: SEQ ID NO 6 (designed binder)
chain: B4 chain with Y64F, S71F
For B13, the Kd in assay [1] was at most 200 nM.
